Experimental data reported in article PMC2228010, “Production and characterization of a recombinant anti-MUC1 scFv reactive with human carcinomas” (British Journal of Cancer, 1997).

T1: immunodominant region related peptide APDTRPAPG (Homo sapiens MUC1 repeat, synthetic)
T1 construct: stretch of the MUC1 20 amino acid repeat; Free in solution for fluorescence quenching; source: synthetic peptide
T1 chain: APDTRPAPG


Key:
[1] = target: T2, MUC1 antigen on human breast and bladder carcinoma tissue sections (Homo sapiens, UniProt P15941); assay: immunostaining of cells or tissue; 3 um paraffin sections of breast and transitional cell bladder tumours, no antigen retrieval; primary antibody 1 h; scFv detected with mouse anti-E-Tag (1:50); StreptABC/HRP, diaminobenzidine; conditions: one partner purified
T2 construct: MUC1 mucin in tumour tissue; also called breast tumour tissue sections; sections from bladder carcinomas; source: endogenous, archival paraffin sections of breast and transitional cell bladder tumours
T2 sequence (P15941 24-1255): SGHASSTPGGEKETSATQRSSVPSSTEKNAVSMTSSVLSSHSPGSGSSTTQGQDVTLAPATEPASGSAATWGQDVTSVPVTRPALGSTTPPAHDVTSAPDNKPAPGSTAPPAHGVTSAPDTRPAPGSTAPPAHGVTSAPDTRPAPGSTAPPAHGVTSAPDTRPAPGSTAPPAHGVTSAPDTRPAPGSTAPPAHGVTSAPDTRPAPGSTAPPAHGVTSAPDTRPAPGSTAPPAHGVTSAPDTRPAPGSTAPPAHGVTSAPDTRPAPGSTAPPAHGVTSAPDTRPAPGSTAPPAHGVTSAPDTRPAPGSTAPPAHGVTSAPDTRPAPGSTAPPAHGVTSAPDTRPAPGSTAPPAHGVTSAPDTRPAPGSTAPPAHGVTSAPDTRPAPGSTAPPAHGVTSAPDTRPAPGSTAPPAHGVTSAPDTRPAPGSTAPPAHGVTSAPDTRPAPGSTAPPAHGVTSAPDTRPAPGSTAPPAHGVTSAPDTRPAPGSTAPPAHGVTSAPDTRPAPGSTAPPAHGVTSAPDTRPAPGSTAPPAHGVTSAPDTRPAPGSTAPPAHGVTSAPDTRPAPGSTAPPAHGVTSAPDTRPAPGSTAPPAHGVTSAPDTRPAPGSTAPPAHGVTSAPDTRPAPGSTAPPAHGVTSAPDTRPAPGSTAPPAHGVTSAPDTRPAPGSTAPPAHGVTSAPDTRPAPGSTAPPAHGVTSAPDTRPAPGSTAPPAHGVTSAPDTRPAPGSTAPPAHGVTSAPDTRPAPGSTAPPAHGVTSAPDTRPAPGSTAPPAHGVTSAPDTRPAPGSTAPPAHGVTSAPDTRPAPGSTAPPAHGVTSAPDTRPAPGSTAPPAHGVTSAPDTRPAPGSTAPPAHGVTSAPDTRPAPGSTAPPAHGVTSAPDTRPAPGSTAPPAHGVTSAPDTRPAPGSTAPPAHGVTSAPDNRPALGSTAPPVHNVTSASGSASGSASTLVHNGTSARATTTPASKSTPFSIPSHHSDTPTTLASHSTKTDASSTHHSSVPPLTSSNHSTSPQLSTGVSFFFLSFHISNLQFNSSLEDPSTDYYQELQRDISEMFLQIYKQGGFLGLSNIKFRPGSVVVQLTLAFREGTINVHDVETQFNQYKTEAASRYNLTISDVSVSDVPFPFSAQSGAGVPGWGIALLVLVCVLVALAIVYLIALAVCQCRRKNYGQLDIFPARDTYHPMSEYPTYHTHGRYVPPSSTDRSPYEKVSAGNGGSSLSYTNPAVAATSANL

[2] = target: T3, 105 mer MUC1 peptide (Homo sapiens MUC1 repeat, synthetic, UniProt P15941); assay: other fluorescence titration; fluorescence quenching in PBS, excitation 290 nm, emission 345 nm; C595 0.12 uM or C595 scFv 0.27 uM, 2.5 ul aliquots of 60 uM peptide added until maximum quenching; Scatchard analysis; conditions: both partners purified
T3 construct: source: synthetic peptide, provided by Dr J Darrell Fontenot

[3] = target: T4, 60 mer MUC1 peptide (Homo sapiens MUC1 repeat, synthetic, UniProt P15941); assay: as above; conditions: both partners purified
T4 construct: source: synthetic peptide, provided by Dr J Darrell Fontenot

[4] = target: T1, immunodominant region related peptide …; assay: as above; conditions: both partners purified
[5] = target: T5, p(1-25) peptide (Homo sapiens MUC1 repeat, synthetic); assay: as above; conditions: both partners purified
T5 construct: 25 residues of the MUC1 tandem repeat region; source: synthetic peptide
T5 sequence (peptide, as listed by the source): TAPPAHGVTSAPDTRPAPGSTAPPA

[6] = target: T1, immunodominant region related peptide …; assay: peptide epitope affinity chromatography; filtered bacterial supernatant applied to Sepharose 4B conjugated to APDTRPAPG; washed with PBS, 0.02% sodium azide; bound scFv eluted with 3 M sodium thiocyanate; eluate analysed by SDS-PAGE and anti-E-Tag Western blot; conditions: one partner purified

Row | binding result [1] | binding result [2] | binding result [3] | binding result [4] | binding result [5] | binding result [6] | Binder
1 | binds | binds | binds | binds | binds | – | Monoclonal antibody C595 (antibody, V domains shown, mouse IgG3 heavy chain constant region; mouse kappa light chain constant region; IgG3, kappa light chain; it was used at stated concentrations in PBS; also called NCRC-48; source: hybridoma (spleen cells of a BALB/c mouse immunized against purified MUC1 urinary mucin)) VH: EVQLVESGGGLVQPGGSLKLSCAASGFTFSSYGMSWVRQTPDKRLELVATINSNGGSTYYPDSVKGRFTISRDNAKNTLYLQMSSLKSEDTAMYYCARDRDGYDEGFDYWG VL: QIVLTQSPAIMSASPGEKVTMTCSASSSVSYMHWYQQKSGTSPKRWIYDTSKLASGVPARFSGSGSGTSYSLTISSMEAEDAATYYCQQWSSNPPTFGGGTKLEIK
2 | binds | binds | binds | – | binds | binds | C595 scFv clone 31 (scFv, V domains shown, it is not written as a part; About 30 kDa on SDS-PAGE; also called recombinant C595 scFv; the scFv; source: E. coli HB2151 (pCANTAB 5E, IPTG), bacterial culture supernatant; not shown: E-Tag, C-terminal, kept) VH: QVQLQESGGGLVQPGGSLKLSCAASGFTFSSYGMSWVRQTPDKRLELVATINSNGGSTYYPDSVKGRFTISRDNAKNTLYLQMSSLKSEDTAMYYCARDRDGYDEGFDYWGPGTTVTVSS VL: DIELTQSPSIMSASPGEKVTMTCSASSSVSYMHWYQQKSGTSPKRWIYDTSKLASGVPARFSGSGSGTSYSLTISSMEAEDAATYYCQQWSSNPPTFGGRTKLELK
